What all share (assay type): biochemical, human
The test system of test [1] is GM12878 nuclei. As to the kind of experiment: Peroxidase-mediated biotin labeling after transposition, western blot. The procedure: Western blot. Whole cell lysate was generated by resuspending cells washed with 1×PBS in RIPA (Boston BioProducts) supplemented with 1× complete EDTA-free protease inhibitor cocktail (Roche). Cells were subject to sonication via a Sonic Dismembrator 100 (Fisher Scientific) at setting 2, with 3 pulses of 15 seconds on/off on ice. Lysates were clarified by centrifugation (15,000×g, 30 minutes, 4° C.) and their concentrations quantified with detergent-compatible Bradford assay (Thermo Fisher Scientific). All Western blots were run on NuPAGE 4-12% Bis-Tris protein gels (Thermo Fisher Scientific) and transferred to […] nitrocellulose membranes (GE Healthcare). Membranes were stained with Ponceau S, blocked with 3% milk in PBS-T, and incubated overnight with primary antibody and subsequently with secondary antibody after brief washing with PBS-T. Chemiluminescence was determined by applying ECL Western Blotting detection reagent (GE Healthcare) to membranes and imaging on an Amersham Imager 600 (GE Healthcare). Membranes were stripped with Restore PLUS Stripping Buffer (Thermo Fisher Scientific); streptavidin-HRP was inactivated with 15% hydrogen peroxide. […]
(Immunoblotting shows a protein as a band on a membrane.)

The test system of test [2] is HEK293T nuclei. As to the kind of experiment: iDAPT protein labeling, western blot of labeled nuclear lysates. The following applies: extracted HEK293T nuclei. The procedure: (§1) DNA and protein tagging by iDAPT. All iDAPT proteomic labeling assays were performed as described below unless indicated otherwise. 2.5 μmol MEDS-A/B, 2 μmol enzyme, and 1 μmol hemin chloride per channel were incubated at room temperature for 1 hour. 1e7 cells per sample were washed (500×g, 5 minutes, 4° C.), lysed and triturated in 100 μL LB1 (10 mM Tris-HCl pH 7.5, 10 mM NaCl, 3 mM MgCl2, 1% BSA, 0.01% digitonin, 0.1% Tween-20, 0.1% NP-40, and 1× cOmplete EDTA-free protease inhibitor cocktail [Roche]) for 3 minutes, and subsequently supplemented with an additional 1 mL of LB2 (10 mM Tris-HCl pH 7.5, 10 mM NaCl, 3 mM MgCl2, 1% BSA, 0.1% Tween-20, and 1× protease inhibitor). Nuclei were pelleted (500×g, 10 minutes, 4° C.), resuspended with tagmentation reaction mixture (20% dimethylformamide, 10 mM MgCl2, 20 mM Tris-HCl pH 7.5, 33% 1×PBS, 1% BSA, 0.01% digitonin, 0.1% Tween-20, 500 μM biotin-phenol, 1× protease inhibitor, and 2 pmol enzyme equivalent of enzyme:DNA:heme complex in a total volume of 500 μL), and incubated at 37° C. for 30 minutes with agitation on a thermomixer (1,000 rpm). 5 μL of tagmentation mix was saved for quality assessment as described above for ATAC-seq/iDAPT-seq sample preparation. The remaining nuclear suspension was then washed 2× with 1×PBS supplemented with 500 μM biotin-phenol, 1% BSA, 0.1% Tween-20, and 1× protease inhibitor (3000×g, 5 minutes, 4° C.) and labeled with 1 mM hydrogen peroxide and 500 μM biotin-phenol for 1 minute in 1×PBS with 1× protease inhibitor in a volume of 500 μL. Peroxidation reactions were quenched with 500 μL 2× quenching buffer (10 mM Trolox, 20 mM sodium ascorbate, 20 mM NaN3, and 1× protease inhibitor in 1×PBS). Labeled nuclei were then pelleted, washed with 1× quenching buffer, resuspended in 500 μL RIPA containing protease inhibitors, and frozen at −80° C. Lysates were thawed on ice, sonicated via a Sonic Dismembrator 100 (Fisher Scientific, setting 3, 15 seconds, 4 pulses), and incubated on ice for 30 minutes after the addition of 1 μL benzonase (EMD Millipore). Lysates were clarified by centrifugation (15,000×g, 20 minutes, 4° C.), quantified via the detergent-compatible Bradford assay (Thermo Fisher Scientific), and subjected to either Western blotting or quantitative mass spectrometry analyses as described below. For NB4 cell analysis, an additional endogenous peroxidase blocking step was added after nuclear extraction and before tagmentation: nuclei were resuspended in 500 μL 1×PBS containing 1% BSA, 0.03% hydrogen peroxide, and 0.1% NaN3 and incubated on ice for 30 minutes. Nuclei were pelleted and washed 4× with 1×PBS/1% BSA (3000×g, 5 minutes, 4° C.). Residual hydrogen peroxide was monitored by colorimetric assessment of supernatant via Quantofix peroxides test stick (Sigma).
(§2) Western blotting analysis. Whole cell or nuclear lysates were generated by resuspending cells or nuclei in RIPA (Boston BioProducts) supplemented with 1× cOmplete EDTA-free protease inhibitor cocktail (Roche). […] Lysates were clarified by centrifugation (15,000×g, 20 minutes, 4° C.) and their concentrations quantified via the detergent-compatible Bradford assay (Thermo Fisher Scientific). […] Membranes were blocked with 3% milk in PBS-T and incubated overnight with primary antibody and subsequently with secondary antibody after brief washing with PBS-T. Chemiluminescence was determined by applying ECL Western Blotting detection reagent (GE Healthcare) to membranes and imaging on an Amersham Imager 600 (GE Healthcare). […]

In test [3] the test system is K562 nuclei. Described as above. The procedure: as §1, §2

B1: TP3: Tn5 transposase-AEAAAKEAAAKA linker-APEX2 peroxidase fusion, C-terminal FLAG; amino acid SEQ ID NO: 27 (protein)
chain: MITSALHRAADWAKSVFSSAALGDPRRTARLVNVAAQLAKYSGKSITISSEGSKAMQEGAYRFIRNPNVSAEAIRKAGAMQTVKLAQEFPELLAIEDTTSLSYRHQVAEELGKLGSIQDKSRGWWVHSVLLLEATTFRTVGLLHQEWWMRPDDPADADEKESGKWLAAAATSRLRMGSMMSNVIAVCDREADIHAYLQDKLAHNERFVVRSKHPRKDVESGLYLYDHLKNQPELGGYQISIPQKGVVDKRGKRKNRPARKASLSLRSGRITLKQGNITLNAVLAEEINPPKGETPLKWLLLTSEPVESLAQALRVIDIYTHRWRIEEFHKAWKTGAGAERQRMEEPDNLERMVSILSFVAVRLLQLRESFTPPQALRAQGLLKEAEHVESQSAETVLTPDECQLLGYLDKGKRKRKEKAGSLQWAYMAIARLGGFMDSKRTGIASWGALWEGWEALQSKLDGFLAAKDLMAQGIKIAEAAAKEAAAKAGKSYPTVSADYQDAVEKAKKKLRGFIAEKRCAPLMLRLAFHSAGTFDKGTKTGGPFGTIKHPAELAHSANNGLDIAVRLLEPLKAEFPILSYADFYQLAGVVAVEVTGGPKVPFHPGREDKPEPPPEGRLPDPTKGSDHLRDVFGKAMGLTDQDIVALSGGHTIGAAHKERSGFEGPWTSNPLIFDNSYFTELLSGEKEGLLQLPSDKALLSDPVFRPLVDKYAADEDAFFADYAEAHQKLSELGFADADYKDDDDK
modifications: C-terminal FLAG
B1: in test [1], the “biotinylation signal (streptavidin)” value is “highest signals”. The peroxidase-dependent biotin signal entry in test [2] is reported as “strong peroxidase-dependent biotin signal”. Moreover, the biotin labeling result in test [3] was “highest levels of labeling”.

(Values after patent US20230024461A1, “METHODS FOR DUAL DNA/PROTEIN TAGGING OF OPEN CHROMATIN” (Beth Israel Deaconess Medical Center, Inc., priority 2019, published 2023).)
